Reference: patent US20110091994A1, “Methods for Screening Compounds for Treating and/or Preventing an Hepatitis C Virus Infection” (priority 2008, published 2011)
Read-outs that look alike come from different tables or passages of the source.

Experiments:
[1] = target: T1, HCV ORFs (Gal4-DB fusions) (Hepatitis C virus genotype 1b, UniProt Q9WMX2); type: binding, HCV genotype 1b, isolate con1; details: human protein as prey
T1 construct: expressed in transfected cells; host or cells: Saccharomyces cerevisiae MAV203 (IMAP1) / AH109 (IMAP2)

HCV proteins = target: T2, HCV proteins (Hepatitis C virus genotype 1b, UniProt Q9WMX2); test: Validation by Y2H pairwise matrices; type: binding;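 further: yeast two-hybrid pairwise tests of interactions first found in Y2H screens of HCV bait proteins against human cDNA libraries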
T2 construct: expressed in transfected cells

[2] = tested on: HCV ORFs (Gal4-DB fusions); type: binding, HCV genotype 1b, isolate con1; details: human protein listed by gene symbol; the value names the HCV protein it interacts with
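Wherever IMAP Y2H IMAP1 (number of IST) is given: yeast two-hybrid screens using HCV genotype 1b proteins fused to Gal4-DB as baits against prey cDNA libraries from human spleen and foetal brain, IMAP1 via transformation and IMAP2 via mating.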
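Wherever IMAP Y2H IMAP2 (number of IST) is given: yeast two-hybrid screens using HCV genotype 1b proteins fused to Gal4-DB as baits against prey cDNA libraries from human spleen and foetal brain, IMAP1 via transformation and IMAP2 via mating.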
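Wherever Interaction with viral protein is given: yeast two-hybrid screens using HCV genotype 1b proteins fused to Gal4-DB as baits against prey cDNA libraries from human spleen and foetal brain, IMAP1 via transformation and IMAP2 via mating.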

B1: SEPT10 (protein, UniProt Q9P0V9 1-454, looked up)
Septin-10: MASSEVARHLLFQSHMATKTTCMSSQGSDDEQIKRENIRSLTMSGHVGFESLPDQLVNRSIQQGFCFNILCVGETGIGKSTLIDTLFNTNFEDYESSHFCPNVKLKAQTYELQESNVQLKLTIVNTVGFGDQINKEESYQPIVDYIDAQFEAYLQEELKIKRSLFTYHDSRIHVCLYFISPTGHSLKTLDLLTMKNLDSKVNIIPVIAKADTVSKTELQKFKIKLMSELVSNGVQIYQFPTDDDTIAKVNAAMNGQLPFAVVGSMDEVKVGNKMVKARQYPWGVVQVENENHCDFVKLREMLICTNMEDLREQTHTRHYELYRRCKLEEMGFTDVGPENKPVSVQETYEAKRHEFHGERQRKEEEMKQMFVQRVKEKEAILKEAERELQAKFEHLKRLHQEERMKLEEKRRLLEEEIIAFSKKKATSEIFHSQSFLATGSNLRKDKDRKNSNFL
- IMAP Y2H IMAP1 (number of IST) ([1]; HCV protein NS3 as bait): 1
- Y2H matrices (HCV proteins; validation of interaction with HCV protein NS3): +

B2: SMEK2 (protein, UniProt Q5MIZ7 1-849, looked up)
Serine/threonine-protein …: MSDTRRRVKVYTLNEDRQWDDRGTGHVSSTYVEELKGMSLLVRAESDGSLLLESKINPNTAYQKQQDTLIVWSEAENYDLALSFQEKAGCDEIWEKICQVQGKDPSVEVTQDLIDESEEERFEEMPETSHLIDLPTCELNKLEEIADLVTSVLSSPIRREKLALALENEGYIKKLLQLFQACENLENTEGLHHLYEIIRGILFLNKATLFEVMFSDECIMDVVGCLEYDPALAQPKRHREFLTKTAKFKEVIPITDSELRQKIHQTYRVQYIQDIILPTPSVFEENFLSTLTSFIFFNKVEIVSMLQEDEKFLSEVFAQLTDEATDDDKRRELVNFFKEFCAFSQTLQPQNRDAFFKTLAKLGILPALEIVMGMDDLQVRSAATDIFSYLVEFSPSMVREFVMQEAQQSDDDILLINVVIEQMICDTDPELGGAVQLMGLLRTLIDPENMLATTNKTEKSEFLNFFYNHCMHVLTAPLLTNTSEDKCEKDFFLKHYRYSWSFICTPSHSHSHSTPSSSISQDNIVGSNKNNTICPDNYQTAQLLALILELLTFCVEHHTYHIKNYIMNKDLLRRVLVLMNSKHTFLALCALRFMRRIIGLKDEFYNRYITKGNLFEPVINALLDNGTRYNLLNSAVIELFEFIRVEDIKSLTAHIVENFYKALESIEYVQTFKGLKTKYEQEKDRQNQKLNSVPSILRSNRFRRDAKALEEDEEMWFNEDEEEEGKAVVAPVEKPKPEDDFPDNYEKFMETKKAKESEDKENLPKRTSPGGFKFTFSHSASAANGTNSKSVVAQIPPATSNGSSSKTTNLPTSVTATKGSLVGLVDYPDDEEEDEEEESSPRKRPRLGS
- IMAP Y2H IMAP1 (number of IST) ([1]; HCV protein E2 as bait): 1
- Y2H matrices (HCV proteins; validation of interaction with HCV protein E2): +

B3: C16orf7 (protein, UniProt Q9Y2B5 1-631, looked up)
VPS9 domain-containing …: MAAAAGDGTVKPLQSAMKLANGAIELDTGNRPREAYTEYLRSIHYISQVLLEEVETTKEAGETVPPDTSKMLKLAQQCLERAQSTAAKLGKTRLKPTMPAAAPIPQPAGRHRRVYSDEGGKLSPFLPPEIFQKLQGAESQSCKKELTPLEEASLQNQKLKAAYEARMARLDPSQAMQKTSLTLSLQRQMMENLVIAKAREETLQRKMEERRLRLQEAANRRFCSQVALTPEEREQRALYAAILEYEQDHDWPKHWKAKLKRNPGDLSLVTSLVSHLLSLPDHPIAQLLRRLQCSVYSALYPAVSRAAAPAPGCCPPTPNPGSRRLRPSQSLHCMLSPPEPSAAPRPQDSPPTPPLQPGPVGSPSPLGDTASGLPDKDSSFEDLEQFLGTSERQGRGRGVQPEPQLQQLKTAVEEIHNAVDRLLSLTLLAFEGLNTAASKDRCLACIEEPFFSPLWPLLLALYRSVHRAREAALSRSMELYRNAPPTAIGIPTKLLPQNPEAKGATGYPYCAAAQELGLLVLESCPQKKLECIVRTLRIICVCAEDYCPTPEATPQAGPPPIAAAAIGADDLLPILSFVVLRSGLPQLVSECAALEEFIHEGYLIGEEGYCLTSLQSALSYVELLPRGGLAK
- IMAP Y2H IMAP2 (number of IST) ([1]; HCV protein NS3 as bait): 1
- Interaction with viral protein [2]: NS3
